B1: Notch2 TM helix-containing fragment, Notch2(1666–1710) [human] / itself (parent)
chain: VVSESLTPERTQLLYLLAVAVVIILFIILLGVIMAKRKRKHGSLW
B2: Notch4 TM helix-containing fragment, Notch4(1432–1481) [human] / itself (parent)
chain: VHPHAGTAPPANQLPWPVLCSPVAGVILLALGALLVLQLIRRRRREHGAL
B3: Notch1 TM helix-containing fragment, Notch1(1721–1767) [human] / itself (parent)
chain: VQSETVEPPPPAQLHFMYVAAAAFVLLFFVGCGVLLSRKRRRQHGQL
B4: Notch3 TM helix-containing fragment, Notch3(1629–1675) [human] / itself (parent)
chain: VRGEPLEPPEPSVPLLPLLVAGAVLLLVILVLGVMVARRKREHSTLW

The variants in one experiment derive from B1. Briefly: Tango assay. Particulars: with itself;; read off a plot.
Regarding chain 1 F26P I27P, the response (relative activity (C99-WT = 100)) was 46.

Take chain 1 I28P L29P: the response (relative activity (C99-WT = 100)) came to 53.

As for chain 1 A18P V19P, the response (relative activity (C99-WT = 100)) was found to be 82.

In another experiment the parent is B2. Briefly: Tango assay. Particulars: with itself;; read off a plot.
As to chain 1 A33P L34P, the response (relative activity (C99-WT = 100)) came out at 140.

In the case of chain 1 L31P G32P, the response (relative activity (C99-WT = 100)) worked out at 93.

Regarding chain 1 V23P A24P, the response (relative activity (C99-WT = 100)) stood at 130.

Variants of B3 are the subject of a further experiment. Briefly: Tango assay. Conditions: with itself;; read off a plot.
chain 1 V30P G31P: the response (relative activity (C99-WT = 100)) was 91.

On to chain 1 F28P F29P, for which the response (relative activity (C99-WT = 100)) was 93.

In the case of chain 1 A20P A21P, the response (relative activity (C99-WT = 100)) stood at 130.

The variants in another experiment derive from B4. Briefly: Tango assay. Particulars: with itself;; read off a plot.
As for chain 1 V28P I29P, the response (relative activity (C99-WT = 100)) is 62.

For the variant chain 1 L30P V31P, the response (relative activity (C99-WT = 100)) turned out to be 91.

Turning to chain 1 V20P A21P, the response (relative activity (C99-WT = 100)) stood at 84.
